# Experimental data reported in patent US20090274695A1 (published 2009).
# T1: Mouse uPAR, full-length, on transfected COS cells (mouse, UniProt P35456 24-298)
# T1 construct: whole, on cells; also called murine uPAR
# T1 sequence (looked up): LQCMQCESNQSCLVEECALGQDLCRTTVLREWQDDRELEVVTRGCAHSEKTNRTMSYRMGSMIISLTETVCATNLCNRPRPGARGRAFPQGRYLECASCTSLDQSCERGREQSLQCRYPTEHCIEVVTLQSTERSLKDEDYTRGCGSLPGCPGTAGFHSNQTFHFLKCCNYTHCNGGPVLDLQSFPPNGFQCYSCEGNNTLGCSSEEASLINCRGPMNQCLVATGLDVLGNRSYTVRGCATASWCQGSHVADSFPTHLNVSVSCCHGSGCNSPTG
# Tests used:
# [1] = target: T2, unnamed immobilized partner drawn in Figure 10B; test: BIAcore, two-step binding scheme drawn beside the numbers; immobilized partner not named
# T2 construct: It is drawn as a chain of three ovals held by a small tag on a cross-shaped capture molecule on the surface; This would fit biotinylated uPAR on avidin, but it carries no label, so it is not assigned to m7 or m13
# [2] = target: T1, Mouse uPAR, full-length, on transfected …; test: AP fusion protein on COS cells transfected with murine uPAR, colorimetric AP assay; bar pattern assigned by bar order and by paragraph 233
# [3] = target: T2, unnamed immobilized partner drawn in …; test: BIAcore, two-step binding scheme. The line is printed 'ka1' a second time, but the unit 1/s and the scheme's kd1 mark it as the dissociation rate of the first step. Immobilized partner not named
# [4] = target: T3, Human uPAR (urokinase-type plasminogen activator receptor), full-length, on transfected COS or CHO cells (human, UniProt Q03405 23-305); test: homologous competition of purified CYTL1 against CYTL1-AP on uPAR-transfected cells, three independent experiments
# T3 construct: whole, on cells; GPI-anchored on the cell surface; also called uPAR-transfected cells
# T3 sequence (Q03405 23-305): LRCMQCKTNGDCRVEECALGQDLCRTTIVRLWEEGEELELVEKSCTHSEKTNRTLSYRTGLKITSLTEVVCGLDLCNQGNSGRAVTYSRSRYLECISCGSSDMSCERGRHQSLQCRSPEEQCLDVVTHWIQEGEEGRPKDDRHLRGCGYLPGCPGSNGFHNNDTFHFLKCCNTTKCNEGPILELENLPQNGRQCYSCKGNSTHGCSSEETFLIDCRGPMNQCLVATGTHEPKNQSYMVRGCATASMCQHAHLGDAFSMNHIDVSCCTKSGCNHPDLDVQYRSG
# [5] = target: T4, Recombinant human uPAR (R&D Systems), immobilized on a CM5 sensor chip (human, UniProt Q03405 23-303, limits assumed); test: SPR equilibrium binding, Langmuir single-site fit, three sets of readings; SPR equilibrium binding, uPAR immobilized on the chip
# T4 construct: Bought protein, amine-coupled to the chip; also called immobilized uPAR
# T4 sequence (Q03405 23-303 limits assumed): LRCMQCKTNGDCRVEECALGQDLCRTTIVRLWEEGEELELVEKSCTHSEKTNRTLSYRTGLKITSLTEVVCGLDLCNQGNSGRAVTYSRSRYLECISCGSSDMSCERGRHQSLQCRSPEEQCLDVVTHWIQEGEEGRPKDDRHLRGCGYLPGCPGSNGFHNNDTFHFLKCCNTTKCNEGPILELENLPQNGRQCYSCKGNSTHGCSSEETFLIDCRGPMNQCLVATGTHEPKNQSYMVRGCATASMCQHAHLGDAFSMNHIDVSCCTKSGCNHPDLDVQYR
kon [1],binding result [2],koff [3],Kd [4],Kd [5],Binder
570000 M⁻¹ s⁻¹,no binding,0.018 s⁻¹,–,–,"Human CYTL1-alkaline phosphatase fusion protein (other, Expressed in 293 cells from a pRK5-based vector and used as cell-conditioned medium; also called CYTL1-AP; human CYTL1-AP; not shown: Human placental alkaline phosphatase (AP)) TPPTCYSRMRALSQEITRDFNLLQVSEPSEPCVRYLPRLYLDIHNYCVLDKLRDFVASPPCWKVAQVDSLKDKARKLYTIMNSFCRRDLVFLLDDCNALEYPIPVTTVLPDRQR"
–,–,–,~1500 nM,1100 nM,"Purified human CYTL1 (cytokine-like 1), expressed in insect cells, poly-histidine tag cleaved (ligand, also called purified CYTL1; PRO4425) TPPTCYSRMRALSQEITRDFNLLQVSEPSEPCVRYLPRLYLDIHNYCVLDKLRDFVASPPCWKVAQVDSLKDKARKLYTIMNSFCRRDLVFLLDDCNALEYPIPVTTVLPDRQR"
